The chains are these.
B1: peptide B2T2 (peptide)
peptide: {FITC}-RLGWFNQ-NH2
B2: peptide B2A (peptide)
peptide: {FITC}-QGQFRNLRRKQLWTFFLNKK-NH2
B3: peptide B2B (peptide)
peptide: {FITC}-QQFRNRRKLTFLKKLGWFNQ-NH2
B4: peptide B2N (peptide)
peptide: {FITC}-QLWQGQFRNLRRKTFFKKLN-NH2
B5: peptide B1T (peptide)
peptide: {FITC}-KTLFISR-NH2
B6: peptide B1N (peptide)
peptide: FHAWQHQGKTLAISRKTYRI
modifications: FITC on the N-terminus; C-terminal amide
B7: peptide B1 (peptide)
peptide: {FITC}-AHAWQHQGKTLFISRKTYRI-NH2
B8: peptide B2T1 (peptide)
peptide: {FITC}-KLFFNLR-NH2

The star is where a group is joined. FITC = O=C1OC2(c3ccc(O)cc3Oc3cc(O)ccc32)c2ccc(NC(=S)*)cc21 Some results are limits rather than exact numbers.

The first assay addresses substrate-trapping ClpB variant (E279Q/E678Q) (Escherichia coli, UniProt P63284, E279Q/E678Q).
Test: not given
The assay is classed as binding. The settings on record: ClpB with ATP, buffer A, room temperature.
Turning to `O=C1OC2(c3ccc(O)cc3Oc3cc(O)ccc32)c2ccccc21` [fluorescein], the “anisotropy change of free label with ClpB” value is listed as “did not affect the anisotropy”.

A further assay has as its target ATP-hydrolysis deficient substrate-trapping ClpB variant (E279Q/E678Q) (Escherichia coli, UniProt P63284 1-857, E279Q | E678Q). In words: fluorescence polarisation.
Conditions: not given
(Fluorescence polarisation rises when a labelled molecule tumbles more slowly, as on binding a larger partner.)
Broadly, the Kd is the equilibrium constant for the complex coming apart. Turning to B1, the Kd was greater than 1000 nM.
On to B2, for which binding was put at a Kd of 10.2 ± 0.8 nM.
On the same count and under the same terms, to B3 belongs 11.5 ± 0.52 nM; to B4, 17.5 ± 0.92 nM; to B5, 329 ± 39 nM.
The same measure, in the same setting: to B6 belongs 7.26 ± 0.32 nM; to B7, 46.8 ± 1.5 nM.
Same read-out and setting: to B8 belongs 912 ± 231 nM.

(Values after publication PMC6139261 (Archives of biochemistry and biophysics, 2018).)
